Results published in PMC10942602.

Tests used:
[1] = biological target: GFP-Nrxn3α(25b+) (rat); assay: immunostaining of cells or tissue; co-culture (2 days) of HEK293 cells secreting myc-tagged C1ql2 or C1ql2.K262E with primary hippocampal neurons transfected with GFP-Nrxn3α(25b+); fixed, stained for myc and GFP; area of the masked HEK293 cell covered by GFP-Nrxn3α(25b+)-positive neuronal profiles; 25 cells per condition and experiment, N=3
[2] = biological target: GFP-Nrxn3α(25b+) (rat)

Sequence of 6xHis-myc-tagged C1ql2 (Q8CFR0 22-287): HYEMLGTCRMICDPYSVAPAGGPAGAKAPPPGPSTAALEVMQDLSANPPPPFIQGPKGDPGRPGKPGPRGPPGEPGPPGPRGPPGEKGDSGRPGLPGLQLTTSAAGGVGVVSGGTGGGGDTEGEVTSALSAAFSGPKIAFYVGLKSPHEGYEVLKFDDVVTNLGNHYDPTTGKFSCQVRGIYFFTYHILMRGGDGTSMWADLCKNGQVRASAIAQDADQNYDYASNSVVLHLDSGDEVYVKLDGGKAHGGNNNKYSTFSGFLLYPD
Sequence of GFP-Nrxn3α(25b+) (rat) (Q07310 28-1578): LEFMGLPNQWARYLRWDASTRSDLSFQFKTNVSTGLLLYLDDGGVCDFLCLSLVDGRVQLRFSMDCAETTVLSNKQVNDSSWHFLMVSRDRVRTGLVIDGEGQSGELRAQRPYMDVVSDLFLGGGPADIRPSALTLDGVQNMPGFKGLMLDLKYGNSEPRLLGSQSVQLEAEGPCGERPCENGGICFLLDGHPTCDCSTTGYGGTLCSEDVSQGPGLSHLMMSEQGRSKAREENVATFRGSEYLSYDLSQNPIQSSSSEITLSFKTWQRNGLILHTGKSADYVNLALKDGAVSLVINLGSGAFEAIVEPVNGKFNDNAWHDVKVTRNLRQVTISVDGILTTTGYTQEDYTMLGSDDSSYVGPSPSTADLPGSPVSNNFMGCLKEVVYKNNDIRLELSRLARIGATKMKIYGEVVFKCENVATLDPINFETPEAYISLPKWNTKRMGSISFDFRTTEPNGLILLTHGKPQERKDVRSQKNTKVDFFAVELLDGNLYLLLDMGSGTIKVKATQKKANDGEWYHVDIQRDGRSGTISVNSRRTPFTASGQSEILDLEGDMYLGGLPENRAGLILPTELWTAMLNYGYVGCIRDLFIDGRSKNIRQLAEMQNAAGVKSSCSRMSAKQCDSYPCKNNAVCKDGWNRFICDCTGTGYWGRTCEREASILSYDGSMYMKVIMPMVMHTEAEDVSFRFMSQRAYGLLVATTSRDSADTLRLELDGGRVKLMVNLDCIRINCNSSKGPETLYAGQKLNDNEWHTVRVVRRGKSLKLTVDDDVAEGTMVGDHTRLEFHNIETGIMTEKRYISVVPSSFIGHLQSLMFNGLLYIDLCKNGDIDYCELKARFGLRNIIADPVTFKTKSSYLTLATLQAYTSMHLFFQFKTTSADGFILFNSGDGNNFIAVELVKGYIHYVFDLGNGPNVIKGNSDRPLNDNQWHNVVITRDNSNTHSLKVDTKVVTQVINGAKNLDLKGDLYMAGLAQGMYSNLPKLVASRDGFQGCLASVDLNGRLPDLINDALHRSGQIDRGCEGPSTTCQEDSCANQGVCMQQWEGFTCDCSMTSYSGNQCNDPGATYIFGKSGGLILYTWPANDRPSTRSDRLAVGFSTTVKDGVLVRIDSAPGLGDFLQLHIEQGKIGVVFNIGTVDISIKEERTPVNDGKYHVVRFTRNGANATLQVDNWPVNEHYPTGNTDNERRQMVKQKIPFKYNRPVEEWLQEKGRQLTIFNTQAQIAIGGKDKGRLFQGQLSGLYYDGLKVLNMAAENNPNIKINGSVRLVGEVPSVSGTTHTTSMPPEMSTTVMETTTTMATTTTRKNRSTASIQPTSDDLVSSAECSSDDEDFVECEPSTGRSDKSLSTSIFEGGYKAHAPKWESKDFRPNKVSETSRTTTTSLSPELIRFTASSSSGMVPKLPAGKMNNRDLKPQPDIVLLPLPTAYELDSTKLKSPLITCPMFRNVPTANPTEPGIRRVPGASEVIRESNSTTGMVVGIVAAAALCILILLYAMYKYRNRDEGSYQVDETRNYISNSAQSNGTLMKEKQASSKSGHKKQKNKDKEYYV

6xHis-myc-tagged C1ql2 (from UniProt Q8CFR0 22-287) (natural protein)
surface area of HEK293 cells covered by GFP-Nrxn3α(25b+)-positive neuronal profiles [1]: 40

6xHis-myc-tagged C1ql2.K262E (from UniProt Q8CFR0 22-287) (natural protein)
vGlut1 accumulation in GFP-Nrxn3α(25b+)-expressing neurons contacting HEK293 cells expressing C1ql2.K262E (area of the HEK293 cell covered by vGlut1) [2]: 16.9
